# Experimental data reported in patent US20140193915, “COMPOSITIONS AND METHODS FOR CUSTOM SITE-SPECIFIC DNA RECOMBINASES” (Monsanto Technology, LLC, published 2014).
# T1: pN-TALER IV-12 (synthetic)
# T1 chain: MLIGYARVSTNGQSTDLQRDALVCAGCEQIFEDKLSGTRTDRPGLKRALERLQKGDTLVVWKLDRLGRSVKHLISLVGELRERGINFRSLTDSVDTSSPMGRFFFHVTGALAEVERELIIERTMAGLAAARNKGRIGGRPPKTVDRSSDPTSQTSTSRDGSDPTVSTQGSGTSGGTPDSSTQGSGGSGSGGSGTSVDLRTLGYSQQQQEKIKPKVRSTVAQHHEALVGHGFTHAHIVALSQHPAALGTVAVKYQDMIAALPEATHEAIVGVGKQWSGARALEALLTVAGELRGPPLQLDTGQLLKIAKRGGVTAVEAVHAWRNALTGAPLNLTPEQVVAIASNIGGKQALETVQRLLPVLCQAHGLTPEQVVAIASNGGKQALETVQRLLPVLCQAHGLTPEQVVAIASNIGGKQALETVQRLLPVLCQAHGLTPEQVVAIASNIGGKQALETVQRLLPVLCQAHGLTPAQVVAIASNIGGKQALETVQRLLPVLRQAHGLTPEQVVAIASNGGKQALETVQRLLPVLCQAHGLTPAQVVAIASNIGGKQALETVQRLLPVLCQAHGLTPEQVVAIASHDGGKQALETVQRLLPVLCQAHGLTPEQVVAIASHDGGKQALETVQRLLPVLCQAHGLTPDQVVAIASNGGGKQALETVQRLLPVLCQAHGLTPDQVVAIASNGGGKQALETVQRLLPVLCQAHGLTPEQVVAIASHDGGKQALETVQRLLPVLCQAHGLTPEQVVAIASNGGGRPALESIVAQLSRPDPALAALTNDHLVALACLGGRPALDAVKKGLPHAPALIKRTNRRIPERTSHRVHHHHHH
# T2: pN-TALER IV-14 (synthetic)
# T2 chain: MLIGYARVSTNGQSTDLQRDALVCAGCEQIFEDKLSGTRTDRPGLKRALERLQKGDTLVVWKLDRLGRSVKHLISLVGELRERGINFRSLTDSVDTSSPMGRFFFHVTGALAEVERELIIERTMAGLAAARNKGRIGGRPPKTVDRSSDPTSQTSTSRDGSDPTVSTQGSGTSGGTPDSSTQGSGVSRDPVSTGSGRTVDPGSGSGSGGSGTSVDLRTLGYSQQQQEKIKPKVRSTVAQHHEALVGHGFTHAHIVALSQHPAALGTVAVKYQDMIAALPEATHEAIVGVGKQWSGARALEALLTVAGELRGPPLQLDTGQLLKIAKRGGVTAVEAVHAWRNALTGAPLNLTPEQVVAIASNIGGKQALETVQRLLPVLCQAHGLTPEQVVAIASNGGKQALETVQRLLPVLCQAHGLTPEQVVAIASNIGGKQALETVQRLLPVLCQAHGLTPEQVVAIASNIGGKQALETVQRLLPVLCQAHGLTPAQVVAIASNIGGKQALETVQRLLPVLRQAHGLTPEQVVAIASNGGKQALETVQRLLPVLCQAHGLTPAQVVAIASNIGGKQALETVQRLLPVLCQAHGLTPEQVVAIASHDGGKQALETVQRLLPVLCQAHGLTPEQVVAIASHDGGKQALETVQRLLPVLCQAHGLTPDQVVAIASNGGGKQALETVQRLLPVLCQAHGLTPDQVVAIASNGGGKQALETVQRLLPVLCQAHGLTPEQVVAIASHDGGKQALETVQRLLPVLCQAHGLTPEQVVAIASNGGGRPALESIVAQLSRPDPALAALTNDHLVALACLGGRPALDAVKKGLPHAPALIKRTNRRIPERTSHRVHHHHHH
# How the values were obtained:
# [1] = molecular target: T1, pN-TALER IV-12; test: cell_activity; E. coli
# Method: (§1) To test for recombination, E. coli DH5alpha cells were co-transformed with different combinations of TALER expression construct and TALER reporter construct pairs (Tables 6 and 7). The N-TALER expression and reporter constructs were in an approximate 1:1 mass ratio during the transformation. The co-transformed bacteria were plated on media with chloramphenicol, kanamycin, and X-gal then incubated at 37° C. for 18 to 36 hours. Control samples consisted of transformations using the reporter construct alone. Control transformants were similarly plated. The bacterial transformation protocol was either heat shock or electroporation per standard molecular biology techniques.
# (§2) The N-TALER expression constructs representing the N-TALER chimeras with varying linker lengths were co-transformed with N-TALER reporter constructs with TALER central sequence lengths of 18, 20, 24, 30, 40, and 50 bp (Table 13). […] Recombination did occur, but was less efficient with the pN-TALER IV-14 (linker length of 71 amino acids) with each of the N-TALER reporters tested.
# [2] = molecular target: T2, pN-TALER IV-14; test: cell_activity; E. coli
# Method: as §1, §2
binder,measurement,setting,value
Gin20TALE+0 (dsDNA) DNA 1: AGAAGGTATTTATATCCAAAACCATGGTTTACAGTATAAATACCTTCT DNA 2: AGAAGGTATTTATACTGTAAACCATGGTTTTGGATATAAATACCTTCT,activity,[1],1 score
same,activity,[2],3 score
